Results on one substance are retold here after ChEMBL document CHEMBL4680222, “Sensitive fluorogenic substrates for sirtuin deacylase inhibitor discovery” (Eur J Med Chem, 2020).

In data set [1] the test system is CC(=O)N[C@@H](CC(C)C)C(=O)NCC(=O)N[C@@H](CO)C(=O)N[C@@H](CCCCNC(=O)CCC(=O)O)C(=O)Nc1ccc2c(C)cc(=O)oc2c1. The experiment in a line: (§1) Substrate activity at human N-terminal His-tagged SIRT5 (34 to 302 residues) expressed in Escherichia coli assessed as Km measured after 1 hr in presence of NAD+ and trypsin by Michaelis-Menten kinetic model based fluorescence assay.

Data set [2] has as its system CC(=O)N[C@@H](CO)C(=O)N[C@@H](CC(C)C)C(=O)NCC(=O)N[C@@H](CCCCNC(=O)CCC(=O)O)C(=O)Nc1ccc2c(C)cc(=O)oc2c1. Described as §1.
Data set [3] has as its system CC(=O)N[C@@H](Cc1cnc[nH]1)C(=O)N[C@@H](Cc1ccccc1)C(=O)N[C@@H](CO)C(=O)N[C@@H](CCCCNC(=O)CCC(=O)O)C(=O)Nc1ccc2c(C)cc(=O)oc2c1. Described as §1.
The test system of data set [4] is Cc1cc(=O)oc2cc(NC(=O)[C@H](CCCCNC(=O)CCC(=O)O)NC(=O)OCc3ccccc3)ccc12. The data set is described as §1.
Data set [5] has as its system CC(=O)N[C@@H](CC(C)C)C(=O)NCC(=O)N[C@@H](CO)C(=O)N[C@@H](CCCCNC(=O)CCC(=O)O)C(=O)Nc1ccc2c(C)cc(=O)oc2c1. As to the kind of experiment: (§2) Substrate activity at human N-terminal His-tagged SIRT5 (34 to 302 residues) expressed in Escherichia coli assessed as Vmax measured after 1 hr in presence of NAD+ and trypsin by Michaelis-Menten kinetic model based fluorescence assay.

Data set [6] concerns CC(=O)N[C@@H](CO)C(=O)N[C@@H](CC(C)C)C(=O)NCC(=O)N[C@@H](CCCCNC(=O)CCC(=O)O)C(=O)Nc1ccc2c(C)cc(=O)oc2c1. The description is as §2.
Data set [7] has as its system CC(=O)N[C@@H](Cc1cnc[nH]1)C(=O)N[C@@H](Cc1ccccc1)C(=O)N[C@@H](CO)C(=O)N[C@@H](CCCCNC(=O)CCC(=O)O)C(=O)Nc1ccc2c(C)cc(=O)oc2c1. Described as §2.
Data set [8] concerns Cc1cc(=O)oc2cc(NC(=O)[C@H](CCCCNC(=O)CCC(=O)O)NC(=O)OCc3ccccc3)ccc12. The data set is described as §2.
The subject of data set [9] is CC(=O)N[C@@H](CC(C)C)C(=O)NCC(=O)N[C@@H](CO)C(=O)N[C@@H](CCCCNC(=O)CCC(=O)O)C(=O)Nc1ccc2c(C)cc(=O)oc2c1. The experiment in a line: (§3) Substrate activity at human N-terminal His-tagged SIRT5 (34 to 302 residues) expressed in Escherichia coli assessed as Kcat measured after 1 hr in presence of NAD+ and trypsin by Michaelis-Menten kinetic model based fluorescence assay.
The subject of data set [10] is CC(=O)N[C@@H](CO)C(=O)N[C@@H](CC(C)C)C(=O)NCC(=O)N[C@@H](CCCCNC(=O)CCC(=O)O)C(=O)Nc1ccc2c(C)cc(=O)oc2c1. The data set is described as §3.
Data set [11] concerns CC(=O)N[C@@H](Cc1cnc[nH]1)C(=O)N[C@@H](Cc1ccccc1)C(=O)N[C@@H](CO)C(=O)N[C@@H](CCCCNC(=O)CCC(=O)O)C(=O)Nc1ccc2c(C)cc(=O)oc2c1. The description is as §3.
Data set [12] relates to Cc1cc(=O)oc2cc(NC(=O)[C@H](CCCCNC(=O)CCC(=O)O)NC(=O)OCc3ccccc3)ccc12. Described as §3.
The subject of data set [13] is CC(=O)N[C@@H](CC(C)C)C(=O)NCC(=O)N[C@@H](CO)C(=O)N[C@@H](CCCCNC(=O)CCC(=O)O)C(=O)Nc1ccc2c(C)cc(=O)oc2c1. The experiment in a line: (§4) Substrate activity at human N-terminal His-tagged SIRT5 (34 to 302 residues) expressed in Escherichia coli assessed as ratio of Kcat to Km measured after 1 hr in presence of NAD+ and trypsin by Michaelis-Menten kinetic model based fluorescence assay.

In data set [14] the test system is CC(=O)N[C@@H](CO)C(=O)N[C@@H](CC(C)C)C(=O)NCC(=O)N[C@@H](CCCCNC(=O)CCC(=O)O)C(=O)Nc1ccc2c(C)cc(=O)oc2c1. Described as §4.
Data set [15] concerns CC(=O)N[C@@H](Cc1cnc[nH]1)C(=O)N[C@@H](Cc1ccccc1)C(=O)N[C@@H](CO)C(=O)N[C@@H](CCCCNC(=O)CCC(=O)O)C(=O)Nc1ccc2c(C)cc(=O)oc2c1. Described as §4.
For data set [16], the system named is Cc1cc(=O)oc2cc(NC(=O)[C@H](CCCCNC(=O)CCC(=O)O)NC(=O)OCc3ccccc3)ccc12. The description is as §4.

NAD-dependent protein deacylase sirtuin-5, mitochondrial (Homo sapiens), Q9NXA8, sequence (Q9NXA8 whole entry): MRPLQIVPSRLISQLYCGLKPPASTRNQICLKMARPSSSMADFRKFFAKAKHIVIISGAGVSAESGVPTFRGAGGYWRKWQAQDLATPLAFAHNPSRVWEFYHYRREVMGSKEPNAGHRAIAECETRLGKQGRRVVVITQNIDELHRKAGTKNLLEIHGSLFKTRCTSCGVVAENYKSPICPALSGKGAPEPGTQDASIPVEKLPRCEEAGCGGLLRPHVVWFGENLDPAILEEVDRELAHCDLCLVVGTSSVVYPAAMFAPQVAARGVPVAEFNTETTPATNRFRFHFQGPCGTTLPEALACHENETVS

One may read the Km as the concentration of substrate that gives half-maximal velocity. The Vmax is the top rate of the reaction or transport when substrate is in excess. One may read the kcat as the number of substrate molecules converted per active site and unit of time at saturation. As a reminder, the kcat/Km is the second-order rate constant that governs catalysis at low substrate concentration. For the substance “NAD-dependent protein deacylase sirtuin-5, mitochondrial (Homo sapiens), Q9NXA8”, the Michaelis-Menten constant (Km) in data set [1] was determined as 47.6 µM; in data set [2], 31.6 µM; in data set [3], 57.5 µM; in [4], 13.3 µM. The Vmax in data set [5] stood at 116 nM/min; in data set [6], 136 nM/min; in [7], 141 nM/min; in [8] it was 21.7 nM/min. Further, the kcat was 38.8 10^-3/s in data set [9], 45.5 10^-3/s in data set [10], 46.9 10^-3/s in [11] and 2.6 10^-3/s in data set [12]. In addition, the kcat/Km in data set [13] is 817 M⁻¹ s⁻¹; in data set [14] it was 1440 M⁻¹ s⁻¹; in [15], 815 M⁻¹ s⁻¹; in data set [16] it was 160 M⁻¹ s⁻¹.
